Data reported in the supplement of paper PMC6757056.
± gives the standard deviation of the averaged measurements.

B1: library; a variant is named by its letters at N, in order (parent)
chain: GCUGUCACCGGUGCUUGGUACGUUAUAUUCAGCCGGUCUGAUGAGUCUNNNNNNAGACGAAACAGC

Assays:
(6R,S)-folinic acid [1] = variants of: B1; assay: normalized RNA/DNA level without ligand (relative to sTRSVctl = 100) (log10 (% of sTRSVctl)); HEK293T overexpressing SLC46A1; higher = less ribozyme self-cleavage, higher mRNA level; conditions: without (6R,S)-folinic acid; ligand present: no
How it was run: (§1)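 Total RNA, extracted with EDTA 72 h after HEK293T cells were transfected with 4 µg per 6-well well of reporter-linked ribozyme switch library plasmids, was reverse-transcribed, amplified, barcoded and sequenced. Ligand, if used, was added 1 h before transfection. RNA level was derived from RNA reads divided by DNA reads and normalized to a spiked-in non-cleaving sequence or to the top sequences. This was multiplied by 100 and log10-transformed, with the top set of 25 sequences and a ≥100 DNA read minimum.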

(6R,S)-folinic acid [2] = variants of: B1; assay: normalized RNA/DNA level with ligand (relative to sTRSVctl = 100) (log10 (% of sTRSVctl)); HEK293T overexpressing SLC46A1; ligand concentration (+) RNA-Seq: 6 mM; higher = less ribozyme self-cleavage, higher mRNA level; conditions: with (6R,S)-folinic acid; ligand present: yes
How it was run: as §1

Variant | normalized RNA/DNA level without ligand (log10) ((6R,S)-folinic acid [1]) | normalized RNA/DNA level with ligand (log10) ((6R,S)-folinic acid [2])
GCUGUCACCGGUGCUUGGUACGUUAUAUUCAGCCGGUCUGAUGAGUCUUACACCAGACGAAACAGC [UACACC] | 2.025 ± 0.011 | 1.99 ± 0.048
GCUGUCACCGGUGCUUGGUACGUUAUAUUCAGCCGGUCUGAUGAGUCUAAAUGUAGACGAAACAGC [AAAUGU] | 1.9431 ± 0.0016 | 1.99 ± 0.028
GCUGUCACCGGUGCUUGGUACGUUAUAUUCAGCCGGUCUGAUGAGUCUGACACCAGACGAAACAGC [GACACC] | 2.026 ± 0.0065 | 1.98 ± 0.038
GCUGUCACCGGUGCUUGGUACGUUAUAUUCAGCCGGUCUGAUGAGUCUGAAUUCAGACGAAACAGC [GAAUUC] | 2.01 ± 0.0081 | 2.02 ± 0.024
GCUGUCACCGGUGCUUGGUACGUUAUAUUCAGCCGGUCUGAUGAGUCUGAAUUUAGACGAAACAGC [GAAUUU] | 2.029 ± 0.01 | 2.01 ± 0.022
GCUGUCACCGGUGCUUGGUACGUUAUAUUCAGCCGGUCUGAUGAGUCUAAAUUAAGACGAAACAGC [AAAUUA] | 1.97 ± 0.012 | 1.99 ± 0.03
GCUGUCACCGGUGCUUGGUACGUUAUAUUCAGCCGGUCUGAUGAGUCUGACAAUAGACGAAACAGC [GACAAU] | 1.967 ± 0.012 | 1.99 ± 0.045
GCUGUCACCGGUGCUUGGUACGUUAUAUUCAGCCGGUCUGAUGAGUCUGACAAGAGACGAAACAGC [GACAAG] | 1.9442 ± 0.00015 | 2.008 ± 0.02
GCUGUCACCGGUGCUUGGUACGUUAUAUUCAGCCGGUCUGAUGAGUCUUAAUUAAGACGAAACAGC [UAAUUA] | 1.991 ± 0.0035 | 2.01 ± 0.048
GCUGUCACCGGUGCUUGGUACGUUAUAUUCAGCCGGUCUGAUGAGUCUUAAUUCAGACGAAACAGC [UAAUUC] | 2.01 ± 0.027 | 2.02 ± 0.031
GCUGUCACCGGUGCUUGGUACGUUAUAUUCAGCCGGUCUGAUGAGUCUUAAUUUAGACGAAACAGC [UAAUUU] | 1.979 ± 0.0057 | 2.01 ± 0.032
GCUGUCACCGGUGCUUGGUACGUUAUAUUCAGCCGGUCUGAUGAGUCUUACAACAGACGAAACAGC [UACAAC] | 2.0034 ± 0.0014 | 2.02 ± 0.034
GCUGUCACCGGUGCUUGGUACGUUAUAUUCAGCCGGUCUGAUGAGUCUCACAAGAGACGAAACAGC [CACAAG] | 1.961 ± 0.006 | 2.013 ± 0.02
GCUGUCACCGGUGCUUGGUACGUUAUAUUCAGCCGGUCUGAUGAGUCUCACAAUAGACGAAACAGC [CACAAU] | 1.954 ± 0.018 | 1.99 ± 0.057
GCUGUCACCGGUGCUUGGUACGUUAUAUUCAGCCGGUCUGAUGAGUCUCACAACAGACGAAACAGC [CACAAC] | 2.004 ± 0.016 | 1.99 ± 0.05
GCUGUCACCGGUGCUUGGUACGUUAUAUUCAGCCGGUCUGAUGAGUCUCAAUUGAGACGAAACAGC [CAAUUG] | 2.014 ± 0.0049 | 2.06 ± 0.023
GCUGUCACCGGUGCUUGGUACGUUAUAUUCAGCCGGUCUGAUGAGUCUCAAUUUAGACGAAACAGC [CAAUUU] | 1.995 ± 0.0068 | 2 ± 0.032
GCUGUCACCGGUGCUUGGUACGUUAUAUUCAGCCGGUCUGAUGAGUCUAACACAAGACGAAACAGC [AACACA] | 1.99 ± 0.011 | 2.01 ± 0.037
GCUGUCACCGGUGCUUGGUACGUUAUAUUCAGCCGGUCUGAUGAGUCUAACACCAGACGAAACAGC [AACACC] | 2.046 ± 0.015 | 2.05 ± 0.086
GCUGUCACCGGUGCUUGGUACGUUAUAUUCAGCCGGUCUGAUGAGUCUCACACGAGACGAAACAGC [CACACG] | 2.0281 ± 0.00028 | 2.04 ± 0.036
GCUGUCACCGGUGCUUGGUACGUUAUAUUCAGCCGGUCUGAUGAGUCUCACACCAGACGAAACAGC [CACACC] | 2.061 ± 0.0083 | 2 ± 0.073
